Test results taken from publication PMC10786891, “Massively parallel profiling of RNA-targeting CRISPR-Cas13d”.
Residue numbers refer to the chain shown, from its start. Names may count otherwise.

T1: EsCas13d, nuclease-dead (Eubacterium siraeum, UniProt B0MS50, R295A;H300A;R849A;H854A)
T1 sequence: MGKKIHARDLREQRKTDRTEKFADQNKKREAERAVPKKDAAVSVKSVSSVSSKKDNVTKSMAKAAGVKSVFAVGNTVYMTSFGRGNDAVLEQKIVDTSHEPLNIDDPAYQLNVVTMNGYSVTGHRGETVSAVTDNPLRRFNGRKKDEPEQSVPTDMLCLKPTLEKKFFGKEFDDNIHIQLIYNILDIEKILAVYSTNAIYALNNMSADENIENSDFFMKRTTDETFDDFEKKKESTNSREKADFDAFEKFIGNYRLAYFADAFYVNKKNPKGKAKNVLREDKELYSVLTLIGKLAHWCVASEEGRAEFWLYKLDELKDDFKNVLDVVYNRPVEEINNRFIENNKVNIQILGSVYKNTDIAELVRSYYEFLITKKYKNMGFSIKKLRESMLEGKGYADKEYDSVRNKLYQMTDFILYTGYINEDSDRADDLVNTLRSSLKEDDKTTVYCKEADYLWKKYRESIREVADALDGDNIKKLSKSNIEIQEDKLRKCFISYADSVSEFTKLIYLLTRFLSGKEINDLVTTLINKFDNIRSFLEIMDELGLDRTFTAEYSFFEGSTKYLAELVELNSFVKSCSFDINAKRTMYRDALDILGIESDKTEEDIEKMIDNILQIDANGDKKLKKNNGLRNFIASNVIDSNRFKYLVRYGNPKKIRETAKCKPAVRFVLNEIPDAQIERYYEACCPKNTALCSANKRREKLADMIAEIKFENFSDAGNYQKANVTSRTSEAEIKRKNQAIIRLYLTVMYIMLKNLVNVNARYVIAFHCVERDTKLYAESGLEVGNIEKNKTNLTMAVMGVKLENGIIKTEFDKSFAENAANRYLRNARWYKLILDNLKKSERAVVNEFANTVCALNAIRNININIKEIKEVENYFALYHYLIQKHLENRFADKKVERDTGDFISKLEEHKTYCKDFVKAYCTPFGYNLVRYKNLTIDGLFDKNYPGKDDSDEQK

B1: target 1 insU 3' of 20,insC 3' of 19 (mixed)
RNA 1: CACCCGUGCAAAAAUGCAGGGGUCUAAAACUGAGCGGAUAACCUCUCUAUGG
RNA 2: GGGAAUGGAUCCACAUCUACGAAUUCGUACCAUUCAGAGAGGUUAUCCGCUCACCGAGAUCGGAAGAGCACACGU
B2: target 1 U11A,G17U (mixed)
RNA 1: B1 RNA 1
RNA 2: GGGAAUGGAUCCACAUCUACGAAUUCGUACCAUAUAGAGGAUAUCCGCUCACCGAGAUCGGAAGAGCACACGU
B3: target 1 insC 3' of 22,insC 3' of 5 (mixed)
RNA 1: B1 RNA 1
RNA 2: GGGAAUGGAUCCACAUCUACGAAUUCGUACCCAUAGAGAGGUUAUCCGCCUCACCGAGAUCGGAAGAGCACACGU
B4: target 2 MT 5'PFS GUA 3'PFS CUU (mixed)
RNA 1: CACCCGUGCAAAAUUGCAGGGGUCUAAAACCUUCUCCAAAUUGUUUCAUCCU
RNA 2: GGGAAUGGAUCCACAUCUACGAAUUCGUAAGGAUGAAACAAUUUGGAGAAGCUUAGAUCGGAAGAGCACACGU
B5: target 2 MT 5'PFS AUU 3'PFS AUU (mixed)
RNA 1: B4 RNA 1
RNA 2: B4 RNA 2 with G27A, A29U, C52A
B6: target 2 MT 5'PFS GCG 3'PFS AAA (mixed)
RNA 1: B4 RNA 1
RNA 2: B4 RNA 2 with U28C, A29G, C52A, U53A, U54A
B7: target 2 MT 5'PFS AUU 3'PFS ACU (mixed)
RNA 1: B4 RNA 1
RNA 2: B4 RNA 2 with G27A, A29U, C52A, U53C
B8: target 2 MT 5'PFS GAC 3'PFS CAU (mixed)
RNA 1: B4 RNA 1
RNA 2: B4 RNA 2 with U28A, A29C, U53A
B9: target 2 MT 5'PFS GAG 3'PFS AAA (mixed)
RNA 1: B4 RNA 1
RNA 2: B4 RNA 2 with U28A, A29G, C52A, U53A, U54A
B10: target 2 MT 5'PFS GAC 3'PFS CAG (mixed)
RNA 1: B4 RNA 1
RNA 2: B4 RNA 2 with U28A, A29C, U53A, U54G
B11: target 2 MT 5'PFS AUU 3'PFS ACG (mixed)
RNA 1: B4 RNA 1
RNA 2: B4 RNA 2 with G27A, A29U, C52A, U53C, U54G
B12: target 2 MT 5'PFS GAG 3'PFS AAU (mixed)
RNA 1: B4 RNA 1
RNA 2: B4 RNA 2 with U28A, A29G, C52A, U53A
B13: target 2 MT 5'PFS GUA 3'PFS CUG (mixed)
RNA 1: B4 RNA 1
RNA 2: B4 RNA 2 with U54G
B14: target 2 MT 5'PFS GAA 3'PFS UUU (mixed)
RNA 1: B4 RNA 1
RNA 2: B4 RNA 2 with U28A, C52U
B15: target 2 MT 5'PFS UUA 3'PFS UAA (mixed)
RNA 1: B4 RNA 1
RNA 2: B4 RNA 2 with G27U, C52U, U53A, U54A
B16: target 2 MT 5'PFS GAC 3'PFS CAA (mixed)
RNA 1: B4 RNA 1
RNA 2: B4 RNA 2 with U28A, A29C, U53A, U54A
B17: target 2 MT 5'PFS GAC 3'PFS CAC (mixed)
RNA 1: B4 RNA 1
RNA 2: B4 RNA 2 with U28A, A29C, U53A, U54C
B18: target 2 MT 5'PFS GGU 3'PFS CCA (mixed)
RNA 1: B4 RNA 1
RNA 2: B4 RNA 2 with U28G, A29U, U53C, U54A
B19: target 2 MT 5'PFS CUC 3'PFS CAA (mixed)
RNA 1: B4 RNA 1
RNA 2: B4 RNA 2 with G27C, A29C, U53A, U54A
B20: target 2 MT 5'PFS AUU 3'PFS ACA (mixed)
RNA 1: B4 RNA 1
RNA 2: B4 RNA 2 with G27A, A29U, C52A, U53C, U54A
B21: target 2 MT 5'PFS GGU 3'PFS CCG (mixed)
RNA 1: B4 RNA 1
RNA 2: B4 RNA 2 with U28G, A29U, U53C, U54G
B22: target 2 MT 5'PFS CAG 3'PFS ACU (mixed)
RNA 1: B4 RNA 1
RNA 2: B4 RNA 2 with G27C, U28A, A29G, C52A, U53C
B23: target 2 MT 5'PFS GUC 3'PFS UCU (mixed)
RNA 1: B4 RNA 1
RNA 2: B4 RNA 2 with A29C, C52U, U53C
B24: target 2 MT 5'PFS GUA 3'PFS CUC (mixed)
RNA 1: B4 RNA 1
RNA 2: B4 RNA 2 with U54C
B25: target 2 MT 5'PFS GUA 3'PFS CUA (mixed)
RNA 1: B4 RNA 1
RNA 2: B4 RNA 2 with U54A
B26: target 2 MT 5'PFS GAG 3'PFS AAC (mixed)
RNA 1: B4 RNA 1
RNA 2: B4 RNA 2 with U28A, A29G, C52A, U53A, U54C
B27: target 2 MT 5'PFS GUC 3'PFS UCG (mixed)
RNA 1: B4 RNA 1
RNA 2: B4 RNA 2 with A29C, C52U, U53C, U54G
B28: target 2 MT 5'PFS UGA 3'PFS CAG (mixed)
RNA 1: B4 RNA 1
RNA 2: B4 RNA 2 with G27U, U28G, U53A, U54G
B29: target 2 MT 5'PFS CUC 3'PFS CAG (mixed)
RNA 1: B4 RNA 1
RNA 2: B4 RNA 2 with G27C, A29C, U53A, U54G
B30: target 2 MT 5'PFS GUC 3'PFS UCC (mixed)
RNA 1: B4 RNA 1
RNA 2: B4 RNA 2 with A29C, C52U, U53C, U54C
B31: target 2 MT 5'PFS GUC 3'PFS UCA (mixed)
RNA 1: B4 RNA 1
RNA 2: B4 RNA 2 with A29C, C52U, U53C, U54A
B32: target 2 MT 5'PFS AAG 3'PFS AAA (mixed)
RNA 1: B4 RNA 1
RNA 2: B4 RNA 2 with G27A, U28A, A29G, C52A, U53A, U54A
B33: target 2 MT 5'PFS UUG 3'PFS CCA (mixed)
RNA 1: B4 RNA 1
RNA 2: B4 RNA 2 with G27U, A29G, U53C, U54A
B34: target 2 MT 5'PFS UGG 3'PFS AAA (mixed)
RNA 1: B4 RNA 1
RNA 2: B4 RNA 2 with G27U, U28G, A29G, C52A, U53A, U54A
B35: target 2 MT 5'PFS AUU 3'PFS ACC (mixed)
RNA 1: B4 RNA 1
RNA 2: B4 RNA 2 with G27A, A29U, C52A, U53C, U54C
B36: target 2 MT 5'PFS GAG 3'PFS AAG (mixed)
RNA 1: B4 RNA 1
RNA 2: B4 RNA 2 with U28A, A29G, C52A, U53A, U54G
B37: target 2 MT 5'PFS CUC 3'PFS CAC (mixed)
RNA 1: B4 RNA 1
RNA 2: B4 RNA 2 with G27C, A29C, U53A, U54C
B38: target 2 MT 5'PFS CGU 3'PFS CCG (mixed)
RNA 1: B4 RNA 1
RNA 2: B4 RNA 2 with G27C, U28G, A29U, U53C, U54G

Biological target: T1, EsCas13d, nuclease-dead
Assay: crRNA (strand 1, pre-loaded); Mg2+; 40 mM Tris-HCl pH 7.5, 150 mM NaCl, 6 mM MgCl2, 1 mM DTT, 0.1% Tween-20, 0.2 mg/ml BSA; 25 C; 10 min per concentration, then washed
Conditions: tags: His6-TwinStrep-SUMO cleaved; N-terminal SNAP kept (SNAP-Surface 488); label: 3' end held by stalled T7 RNA polymerase

Binder | Kd [nM]
B1 | 50 ± 17
B2 | 84 ± 29
B3 | 60 ± 30
B4 | 10.2 ± 1
B5 | 5.5 ± 0.4
B6 | 9.9 ± 2.3
B7 | 10.7 ± 1.3
B8 | 7.4 ± 1.2
B9 | 4.1 ± 0.6
B10 | 17 ± 4
B11 | 9 ± 1
B12 | 5.6 ± 0.7
B13 | 11.1 ± 1.2
B14 | 24 ± 4
B15 | 17 ± 4
B16 | 6.2 ± 1.2
B17 | 12.9 ± 2.4
B18 | 24 ± 5
B19 | 1.72 ± 0.2

Binder | Kd [nM]
B20 | 9.5 ± 2
B21 | 17.4 ± 1.8
B22 | 6.2 ± 2.2
B23 | 25.4 ± 3.3
B24 | 15.5 ± 2.6
B25 | 6.5 ± 0.6
B26 | 6.1 ± 1
B27 | 28 ± 6
B28 | 6.6 ± 0.7
B29 | 1.93 ± 0.21
B30 | 42 ± 6
B31 | 17 ± 5
B32 | 3.7 ± 0.7
B33 | 37 ± 10
B34 | 3.3 ± 0.4
B35 | 15.2 ± 3.1
B36 | 5.6 ± 0.5
B37 | 3.9 ± 0.9
B38 | ~40
